Reference: paper PMC5371818, “Suppression of FOXM1 Transcriptional Activities via a Single-Stranded DNA Aptamer Generated by SELEX”

Columns and labels:
His-FOXM1 full-length = target: T1, His-FOXM1 full-length (UniProt Q08050 1-763); assay: fluorescence polarization; EMSA and FP: 20 mM Tris-Cl, 50 mM KCl, 10% glycerol, 0.5 mM EDTA, 0.2 mM DTT, pH 7.6, 30 min on ice; EMSA 50 nM probe, FP 10 nM probe (50 nM in Fig. 1D legend); details: protein: recombinant, tags: C-terminal His6 (encoded by reverse primer S6)
T1 sequence: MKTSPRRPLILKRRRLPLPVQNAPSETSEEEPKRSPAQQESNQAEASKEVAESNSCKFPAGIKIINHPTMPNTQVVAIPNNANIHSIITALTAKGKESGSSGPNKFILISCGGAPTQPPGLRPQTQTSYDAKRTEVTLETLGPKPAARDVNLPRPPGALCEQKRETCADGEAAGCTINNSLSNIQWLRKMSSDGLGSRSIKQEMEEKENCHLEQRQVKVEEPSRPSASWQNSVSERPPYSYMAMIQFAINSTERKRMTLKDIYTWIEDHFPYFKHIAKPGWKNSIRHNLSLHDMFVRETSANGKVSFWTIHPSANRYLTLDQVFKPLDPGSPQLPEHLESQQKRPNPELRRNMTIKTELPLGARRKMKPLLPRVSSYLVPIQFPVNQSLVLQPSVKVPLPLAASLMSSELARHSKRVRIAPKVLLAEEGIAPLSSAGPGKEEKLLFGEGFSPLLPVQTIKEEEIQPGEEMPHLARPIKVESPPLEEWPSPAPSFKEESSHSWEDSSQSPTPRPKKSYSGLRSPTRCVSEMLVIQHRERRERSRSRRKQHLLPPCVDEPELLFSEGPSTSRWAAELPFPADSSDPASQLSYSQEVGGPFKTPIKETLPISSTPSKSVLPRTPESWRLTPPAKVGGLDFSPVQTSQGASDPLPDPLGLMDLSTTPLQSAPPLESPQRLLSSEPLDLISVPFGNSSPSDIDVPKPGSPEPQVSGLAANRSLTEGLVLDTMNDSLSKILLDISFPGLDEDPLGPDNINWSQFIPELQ

GST-FOXM1 DBD [1] = target: T2, GST-FOXM1 DBD (UniProt Q08050 225-355); assay: as above; details: protein: recombinant, tags: N-terminal GST (pGEX-4T-1)
T2 sequence: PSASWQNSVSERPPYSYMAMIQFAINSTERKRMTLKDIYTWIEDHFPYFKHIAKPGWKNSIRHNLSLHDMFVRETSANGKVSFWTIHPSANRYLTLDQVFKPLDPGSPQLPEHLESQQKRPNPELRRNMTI

GST-FOXM1 DBD [2] = target: T2, GST-FOXM1 DBD; assay: EMSA; EMSA and FP: 20 mM Tris-Cl, 50 mM KCl, 10% glycerol, 0.5 mM EDTA, 0.2 mM DTT, pH 7.6, 30 min on ice; EMSA 50 nM probe, FP 10 nM probe (50 nM in Fig. 1D legend); details: protein: recombinant; tags: N-terminal GST (pGEX-4T-1); label: 5'-ROX
[3] = label: 5'-FAM on forward strand (hot) or none (cold), blunt
[4] = label: 5'-ROX (hot) or none (cold)

B1: FOXM1 dsDNA probe (dsDNA)
DNA 1: TTTGTTTATTTGTTTGTTTATTTG
DNA 2: CAAATAAACAAACAAATAAACAAA
Kd (His-FOXM1 full-length; [3]): 214 ± 249 nM
Kd (GST-FOXM1 DBD [1]; [3]): 543 ± 148 nM

TCACTTCACACCGCATCTCTACGTCCGGTTGCGCTTTCCTTT (ssDNA) [FOXM1 Apt (C1)]
Kd (His-FOXM1 full-length; [4]): 172 ± 26.6 nM
Kd (GST-FOXM1 DBD [1]; [4]): 64.8 ± 25.8 nM

TCACTTCACACCGCATCTCTACGTCCGGTTGCGCTTTCCTTT (ssDNA, phosphorothioate internucleotide linkages) [M-FOXM1 Apt]
Kd (His-FOXM1 full-length): 63.9 ± 6.6 nM

TCACTTAAAAAAAAAAAACTCATGAAAAAAAAAAAATCCTTT (ssDNA) [Control Apt]
binding result (GST-FOXM1 DBD [2]): no binding
